The results in this text go back to publication PMC6380599 (PLoS Pathogens, 2019).

The target of this test is T1, histidine tagged SFTSV Gn-Cκ (Gn ectodomain, strain Gangwon/Korea/2012) (SFTSV (Dabie bandavirus) strain …, UniProt U3GR55, strain).
T1 construct: source: HEK 293F or Expi293F, transfected, purified
The experiment in a line: SPR; Biacore T200, […]; dissociation 5 min in PBS with 0.005% Tween20. The conditions noted are these: both partners purified.

B1: Ab10 IgG1 antibody (antibody, V domains shown)
VH: EVQLVESGGGVVQPGRSLRLSCAASGFTFSGYGIHWVRQAPGKGLEWVALISYDGSNKYYADSVKGRFTISRDNSKNTLYLQMNSLRAEDTAVYYCAKDRDYFGSGFFDYWGQGTLVTVSS
VL: ELVMTQSPSSLSASVGDTVTITCRASQSIYTYLNWYHQTPGKAPKLLISAASSLQSGVPSRFSGSGSGTDFTLTISSLQPEDFATYYCQQYADVPVTFGGGTKLEIK
notes: also called Ab10 mAb; human IgG1 monoclonal antibody Ab10; source: HEK 293F, transfected, purified from culture supernatant (MabSelect)
As for B1, the Kd was 0.104 nM, the koff was 7.7e-05 s⁻¹ and the kon worked out at 740000 M⁻¹ s⁻¹.
